Assay results from PMC7082075.
Where “and” joins values, the source holds several entries; their conditions need not be identical. Equal values may be shown once.

B1: DMT1-II peptide (peptide)
chain: AQPELYLLNTMDADSLVSR
modifications: not checked
B2: DMT1-II peptide (divalent metal transporter 1) (peptide)
chain: AQPELYLLNTMDADSLVSR
modifications: not checked

Columns and labels:
[1] = molecular target: SNX3-retromer complex (Retromer + SNX3), Q96QK1; assay: ITC; approximately 2–3 mM peptide titrated into SNX5^PX (300 μM) or the SNX3-retromer complex (10 μM Retromer + 100 μM SNX3); 100 mM HEPES pH 7.5, 300 mM NaCl, 2 mM βME, 25°C; one set of sites model (Fig 1D, 1E, 2B)
[2] = molecular target: SNX3-retromer complex (retromer VPS35/VPS26/VPS29 with SNX3), Q96QK1; assay: ITC; Fig 1E: approximately 2–3 mM of peptides titrated into the SNX3-retromer complex (10 μM Retromer + 100 μM SNX3); 100 mM HEPES pH 7.5, 300 mM NaCl, 2 mM βME, 25°C; one set of sites model; single values of triplicates

| Binder | Kd [1] [µM] | Kd [2] |
| --- | --- | --- |
| B1 | 110 | – |
| B2 | – | 100 µM and 113 µM and 117 µM |
